The labels stand for the following.
B1: Azoarcus group I ribozyme (parent)
chain: GUGCCUUGCGCCGGGAAACCACGCAAGGGAUGGUGUCAAAUUCGGCGAAACCUAAGCGCCCGCCCGGGCGUAUGGCAACGCCGAGCCAAGCUUCGGCGCCUGCGCCGAUGAAGGUGUAGAGACUAGACGGCACCCACCUAAGGCAAACGCUAUGGUGAAGGCAUAGUCCAGGGAGUGGCGAAAGUCACACAAACCGG

In this data set the parent is B1. The data set can be described thus: reverse-splicing fitness (ratio to wild type); higher = more active; in vitro selection; Mg2+ level not given. The method, boiled down: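 An in vitro group I ribozyme library with randomized positions was T7-transcribed and gel-purified. In triplicate, 10 pmol RNA in EPPS pH 7.5 was reacted with 50 pmoles of a 30-nt RNA substrate for 1 h at 37 °C across several added MgCl2 levels (1–48 mM), then stopped with EDTA. Products were reverse transcribed from a substrate-complementary primer, PCR-amplified and sequenced (HiSeq 4000). Fitness is a variant's read proportion after selection over that before, normalised to wild type.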
For the variant GUGCCUUGCGCCGGGAAACCACGCAAGGGAUGGUGUCAAAUUCGGCGAAACCUAAGCGCCCGCCCGGGCGUAUGGCAACGCCGAGCCAAGCUUCGGCGCCUGCGCCGAUGUAGGUGUAGGGACUAGACGGCACCCACCUAAGGCAAACGAUAUGGUGAAGGCAUAGUCCAGGGAGGGGCGAAAGUCACACAAACCGG [A111U A120G C150A U176G], the reverse-splicing fitness is 0.00685.

In the case of GUGCCUUGCGCCGGGAAACCACGCAAGGGAUGGUGUCAAAUUCGGCGAAACCUAAGCGCCCGCCCGGGCGUAUGGCAACGCCGAGCCAAGCUUCGGCGCCUGCGCCGAUGUAGGUGUAGGGACUAGACGGCACCCACCUAAGGCAAACGAUAUGGUGAAGGCAUAGUCCAGGGAGAGGCGAAAGUCACACAAACCGG [A111U A120G C150A U176A], the reverse-splicing fitness was determined as 0.0147.

As for GUGCCUUGCGCCGGGAAACCACGCAAGGGAUGGUGUCAAAUUCGGCGAAACCUAAGCGCCCGCCCGGGCGUAUGGCAACGCCGAGCCAAGCUUCGGCGCCUGCGCCGAUGUAGGUGUAGGGACUAGACGGCACCCACCUAAGGCAAACGAUAUGGUGAAGGCAUAGUCCAGGGAGCGGCGAAAGUCACACAAACCGG [A111U A120G C150A U176C], the reverse-splicing fitness came to 0.0216.

Turning to GUGCCUUGCGCCGGGAAACCACGCAAGGGAUGGUGUCAAAUUCGGCGAAACCUAAGCGCCCGCCCGGGCGUAUGGCAACGCCGAGCCAAGCUUCGGCGCCUGCGCCGAUGUAGGUGUAGGGACUAGACGGCACCCACCUAAGGCUAACGCUAUGGUGAAGGCAUAGUCAAGGGAGGGGCGAAAGUCACACAAACCGG [A111U A120G A145U C169A U176G], the reverse-splicing fitness came out at 0.00427.

Take GUGCCUUGCGCCGGGAAACCACGCAAGGGAUGGUGUCAAAUUCGGCGAAACCUAAGCGCCCGCCCGGGCGUAUGGCAACGCCGAGCCAAGCUUCGGCGCCUGCGCCGAUGUAGGUGUAGGGACUAGACGGCACCCACCUAAGGCUAACGCUAUGGUGAAGGCAUAGUCCAGGGAGAGGCGAAAGUCACACAAACCGG [A111U A120G A145U U176A]: the reverse-splicing fitness turned out to be 0.0396.

Take GUGCCUUGCGCCGGGAAACCACGCAAGGGAUGGUGUCAAAUUCGGCGAAACCUAAGCGCCCGCCCGGGCGUAUGGCAACGCCGAGCCAAGCUUCGGCGCCUGCGCCGAUGUAGGUGUAGGGACUAGACGGCACCCACCUAAGGCUAACGCUAUGGUGAAGGCAUAGUCCAGGGAGCGGCGAAAGUCACACAAACCGG [A111U A120G A145U U176C]: the reverse-splicing fitness came to 0.0483.

Take GUGCCUUGCGCCGGGAAACCACGCAAGGGAUGGUGUCAAAUUCGGCGAAACCUAAGCGCCCGCCCGGGCGUAUGGCAACGCCGAGCCAAGCUUCGGCGCCUGCGCCGAUGUAGGUGUAGGGACUAGACGGCACCCACCUAAGGCUAACGCUAUGGUGAAGGCAUAGUCCAGGGAGGGGCGAAAGUCACACAAACCGG [A111U A120G A145U U176G]: the reverse-splicing fitness was determined as 0.00581.

As for GUGCCUUGCGCCGGGAAACCACGCAAGGGAUGGUGUCAAAUUCGGCGAAACCUAAGCGCCCGCCCGGGCGUAUGGCAACGCCGAGCCAAGCUUCGGCGCCUGCGCCGAUGUAGGUGUAGGGACUAGACGGCACCCACCUAAGGCUAACGCUAUGGUGAAGGCAUAGUCUAGGGAGCGGCGAAAGUCACACAAACCGG [A111U A120G A145U C169U U176C], the reverse-splicing fitness worked out at 0.0495.

Take GUGCCUUGCGCCGGGAAACCACGCAAGGGAUGGUGUCAAAUUCGGCGAAACCUAAGCGCCCGCCCGGGCGUAUGGCAACGCCGAGCCAAGCUUCGGCGCCUGCGCCGAUGUAGGUGUAGGGACUAGACGGCACCCACCUAAGGCUAACGCUAUGGUGAAGGCAUAGUCUAGGGAGGGGCGAAAGUCACACAAACCGG [A111U A120G A145U C169U U176G]: the reverse-splicing fitness worked out at 0.00682.

As to GUGCCUUGCGCCGGGAAACCACGCAAGGGAUGGUGUCAAAUUCGGCGAAACCUAAGCGCCCGCCCGGGCGUAUGGCAACGCCGAGCCAAGCUUCGGCGCCUGCGCCGAUGUAGGUGUAGGGACUAGACGGCACCCACCUAAGGCUAACGCUAUGGUGAAGGCAUAGUCUAGGGAGAGGCGAAAGUCACACAAACCGG [A111U A120G A145U C169U U176A], the reverse-splicing fitness worked out at 0.0488.

On to GUGCCUUGCGCCGGGAAACCACGCAAGGGAUGGUGUCAAAUUCGGCGAAACCUAAGCGCCCGCCCGGGCGUAUGGCAACGCCGAGCCAAGCUUCGGCGCCUGCGCCGAUGUAGGUGUAGGGACUAGACGGCACCCACCUAAGGCAAACGAUAUGGUGAAGGCAUAGUCCAGGGAGUGGCGAAAGUCACACAAACCGG [A111U A120G C150A], for which the reverse-splicing fitness was determined as 0.02.

Take GUGCCUUGCGCCGGGAAACCACGCAAGGGAUGGUGUCAAAUUCGGCGAAACCUAAGCGCCCGCCCGGGCGUAUGGCAACGCCGAGCCAAGCUUCGGCGCCUGCGCCGAUGUAGGUGUAGGGACUAGACGGCACCCACCUAAGGCAAACGGUAUGGUGAAGGCAUAGUCCAGGGAGUGGCGAAAGUCACACAAACCGG [A111U A120G C150G]: the reverse-splicing fitness was 0.0154.

Regarding GUGCCUUGCGCCGGGAAACCACGCAAGGGAUGGUGUCAAAUUCGGCGAAACCUAAGCGCCCGCCCGGGCGUAUGGCAACGCCGAGCCAAGCUUCGGCGCCUGCGCCGAUGUAGGUGUAGGGACUAGACGGCACCCACCUAAGGCUAACGCUAUGGUGAAGGCAUAGUCGAGGGAGGGGCGAAAGUCACACAAACCGG [A111U A120G A145U C169G U176G], the reverse-splicing fitness was found to be 0.00486.

As to GUGCCUUGCGCCGGGAAACCACGCAAGGGAUGGUGUCAAAUUCGGCGAAACCUAAGCGCCCGCCCGGGCGUAUGGCAACGCCGAGCCAAGCUUCGGCGCCUGCGCCGAUGUAGGUGUAGGGACUAGACGGCACCCACCUAAGGCUAACGCUAUGGUGAAGGCAUAGUCGAGGGAGCGGCGAAAGUCACACAAACCGG [A111U A120G A145U C169G U176C], the reverse-splicing fitness was 0.045.

In the case of GUGCCUUGCGCCGGGAAACCACGCAAGGGAUGGUGUCAAAUUCGGCGAAACCUAAGCGCCCGCCCGGGCGUAUGGCAACGCCGAGCCAAGCUUCGGCGCCUGCGCCGAUGUAGGUGUAGGGACUAGACGGCACCCACCUAAGGCUAACGCUAUGGUGAAGGCAUAGUCGAGGGAGAGGCGAAAGUCACACAAACCGG [A111U A120G A145U C169G U176A], the reverse-splicing fitness was found to be 0.0309.

Source of the values: the RNAGym collection of RNA variant scans (doi:10.1093/molbev/msab373).
